Patent US20040038876A1 (published 2004)

T1: Shh receptor molecules on C3H10T1/2 cells (UniProt Q61115 1-1434)
T1 sequence (looked up): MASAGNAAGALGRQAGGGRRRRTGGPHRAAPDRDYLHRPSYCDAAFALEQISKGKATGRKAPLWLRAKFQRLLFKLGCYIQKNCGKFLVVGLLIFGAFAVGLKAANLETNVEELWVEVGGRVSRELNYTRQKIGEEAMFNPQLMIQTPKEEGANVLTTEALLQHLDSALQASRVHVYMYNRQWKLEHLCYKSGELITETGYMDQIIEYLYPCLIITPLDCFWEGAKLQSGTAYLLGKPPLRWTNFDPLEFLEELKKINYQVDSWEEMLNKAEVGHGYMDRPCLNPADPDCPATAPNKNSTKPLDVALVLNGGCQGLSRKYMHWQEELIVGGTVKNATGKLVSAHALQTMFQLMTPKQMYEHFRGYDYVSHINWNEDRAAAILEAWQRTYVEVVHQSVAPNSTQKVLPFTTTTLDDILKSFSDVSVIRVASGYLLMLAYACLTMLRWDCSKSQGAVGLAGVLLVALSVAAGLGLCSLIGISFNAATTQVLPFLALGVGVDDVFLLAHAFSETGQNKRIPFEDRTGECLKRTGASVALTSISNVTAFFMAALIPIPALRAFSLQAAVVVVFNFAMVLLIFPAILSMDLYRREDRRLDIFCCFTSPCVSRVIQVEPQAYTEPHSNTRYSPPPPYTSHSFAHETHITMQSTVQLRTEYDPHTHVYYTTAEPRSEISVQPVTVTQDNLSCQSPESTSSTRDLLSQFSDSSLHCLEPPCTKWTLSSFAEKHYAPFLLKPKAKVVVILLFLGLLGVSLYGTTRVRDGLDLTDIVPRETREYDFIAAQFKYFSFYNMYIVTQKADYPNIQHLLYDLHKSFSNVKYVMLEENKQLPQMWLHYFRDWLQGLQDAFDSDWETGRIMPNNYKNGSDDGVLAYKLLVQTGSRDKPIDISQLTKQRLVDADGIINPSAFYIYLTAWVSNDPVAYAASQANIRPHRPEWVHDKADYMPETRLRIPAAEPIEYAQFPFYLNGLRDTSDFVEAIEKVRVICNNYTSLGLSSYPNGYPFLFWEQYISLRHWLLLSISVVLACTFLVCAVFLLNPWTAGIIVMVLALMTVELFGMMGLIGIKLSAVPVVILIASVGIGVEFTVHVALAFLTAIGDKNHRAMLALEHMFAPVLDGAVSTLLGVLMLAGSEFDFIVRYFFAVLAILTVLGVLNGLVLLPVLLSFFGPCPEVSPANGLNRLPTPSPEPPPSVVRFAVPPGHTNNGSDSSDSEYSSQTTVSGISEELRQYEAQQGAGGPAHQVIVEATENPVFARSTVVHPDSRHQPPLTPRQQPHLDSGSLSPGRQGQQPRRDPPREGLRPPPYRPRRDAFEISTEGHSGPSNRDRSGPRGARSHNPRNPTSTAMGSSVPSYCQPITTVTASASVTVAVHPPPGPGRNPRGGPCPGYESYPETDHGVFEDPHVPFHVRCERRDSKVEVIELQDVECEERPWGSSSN

B1: mutant 17 (Shh C1II/A169C + N27C), unmodified (ligand)
chain: not shown
B2: mutant 17 (Shh C1II/A169C + N27C), NEM-modified (ligand)
chain: not shown
modifications: N-ethyl maleimide on thiol of Cys27, Cys169
B3: mutant 17 (Shh C1II/A169C + N27C), HPE-modified (ligand)
chain: not shown
modifications: beta-(4-hydroxyphenyl) ethylmaleimide on thiol of Cys27, Cys169
B4: mutant 17 (Shh C1II/A169C + N27C), Napth-modified (ligand)
chain: not shown
modifications: N-(1-naphthyl) maleimide on thiol of Cys27, Cys169
B5: mutant 17 (Shh C1II/A169C + N27C), Pyrene-modified (ligand)
chain: not shown
modifications: N-(1-pyrenyl) maleimide on thiol of Cys27, Cys169
B6: mutant 17 (Shh C1II/A169C + N27C), 5 K PEG (ligand)
chain: not shown
modifications: 5 K PEG maleimide on thiol of Cys27, Cys169
B7: mutant 17 (Shh C1II/A169C + N27C), 20 K PEG (ligand)
chain: not shown
modifications: 20 K PEG maleimide on thiol of Cys27, Cys169
B8: mutant 18 (Shh C1II/A169C + N46C), unmodified (ligand)
chain: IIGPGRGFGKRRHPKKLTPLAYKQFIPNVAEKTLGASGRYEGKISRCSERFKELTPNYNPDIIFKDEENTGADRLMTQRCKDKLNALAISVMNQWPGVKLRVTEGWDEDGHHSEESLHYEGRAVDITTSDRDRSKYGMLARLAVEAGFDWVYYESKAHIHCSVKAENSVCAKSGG
B9: mutant 18 (Shh C1II/A169C + N46C), NEM-modified (ligand)
chain: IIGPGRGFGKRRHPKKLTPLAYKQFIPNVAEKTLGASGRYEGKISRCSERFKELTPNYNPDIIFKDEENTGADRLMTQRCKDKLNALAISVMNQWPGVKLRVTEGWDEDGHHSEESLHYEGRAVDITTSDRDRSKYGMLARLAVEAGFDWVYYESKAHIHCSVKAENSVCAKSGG
modifications: N-ethyl maleimide on thiol of Cys46, Cys169
B10: mutant 18 (Shh C1II/A169C + N46C), HPE-modified (ligand)
chain: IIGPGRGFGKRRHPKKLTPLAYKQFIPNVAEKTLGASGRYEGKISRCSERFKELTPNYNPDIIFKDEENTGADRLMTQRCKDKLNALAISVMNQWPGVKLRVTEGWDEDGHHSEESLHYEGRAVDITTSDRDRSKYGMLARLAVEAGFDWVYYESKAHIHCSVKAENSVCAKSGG
modifications: beta-(4-hydroxyphenyl) ethylmaleimide on thiol of Cys46, Cys169
B11: mutant 18 (Shh C1II/A169C + N46C), Napth-modified (ligand)
chain: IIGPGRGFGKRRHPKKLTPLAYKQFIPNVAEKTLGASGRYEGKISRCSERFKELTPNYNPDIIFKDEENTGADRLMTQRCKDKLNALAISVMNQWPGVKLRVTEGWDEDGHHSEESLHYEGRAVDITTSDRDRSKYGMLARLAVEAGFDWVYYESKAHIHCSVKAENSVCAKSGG
modifications: N-(1-naphthyl) maleimide on thiol of Cys46, Cys169
B12: mutant 18 (Shh C1II/A169C + N46C), Pyrene-modified (ligand)
chain: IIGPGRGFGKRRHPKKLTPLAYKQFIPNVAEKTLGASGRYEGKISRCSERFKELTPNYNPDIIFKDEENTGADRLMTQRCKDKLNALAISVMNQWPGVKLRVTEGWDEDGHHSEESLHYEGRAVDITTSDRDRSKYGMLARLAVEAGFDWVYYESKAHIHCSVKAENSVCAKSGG
modifications: N-(1-pyrenyl) maleimide on thiol of Cys46, Cys169
B13: mutant 18 (Shh C1II/A169C + N46C), 5 K PEG (ligand)
chain: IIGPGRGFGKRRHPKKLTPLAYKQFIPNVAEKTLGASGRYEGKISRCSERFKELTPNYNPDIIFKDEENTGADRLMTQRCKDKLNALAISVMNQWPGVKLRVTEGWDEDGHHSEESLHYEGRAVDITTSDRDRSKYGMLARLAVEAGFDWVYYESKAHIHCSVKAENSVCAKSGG
modifications: 5 K PEG maleimide on thiol of Cys46, Cys169
B14: mutant 18 (Shh C1II/A169C + N46C), 20 K PEG (ligand)
chain: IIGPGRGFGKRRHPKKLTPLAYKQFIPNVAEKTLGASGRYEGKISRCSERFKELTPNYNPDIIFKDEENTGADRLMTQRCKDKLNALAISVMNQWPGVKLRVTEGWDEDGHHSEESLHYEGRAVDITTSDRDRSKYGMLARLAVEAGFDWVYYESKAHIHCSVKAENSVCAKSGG
modifications: 20 K PEG maleimide on thiol of Cys46, Cys169
B15: mutant 19 (Shh C1II/A169C + Y57C), unmodified (ligand)
chain: not shown
B16: mutant 19 (Shh C1II/A169C + Y57C), NEM-modified (ligand)
chain: not shown
modifications: N-ethyl maleimide on thiol of Cys57, Cys169
B17: mutant 19 (Shh C1II/A169C + Y57C), HPE-modified (ligand)
chain: not shown
modifications: beta-(4-hydroxyphenyl) ethylmaleimide on thiol of Cys57, Cys169
B18: mutant 19 (Shh C1II/A169C + Y57C), Napth-modified (ligand)
chain: not shown
modifications: N-(1-naphthyl) maleimide on thiol of Cys57, Cys169
B19: mutant 19 (Shh C1II/A169C + Y57C), Pyrene-modified (ligand)
chain: not shown
modifications: N-(1-pyrenyl) maleimide on thiol of Cys57, Cys169
B20: mutant 19 (Shh C1II/A169C + Y57C), 5 K PEG (ligand)
chain: not shown
modifications: 5 K PEG maleimide on thiol of Cys57, Cys169
B21: mutant 19 (Shh C1II/A169C + Y57C), 20 K PEG (ligand)
chain: not shown
modifications: 20 K PEG maleimide on thiol of Cys57, Cys169
B22: mutant 20 (Shh C1II/A169C + N68C), unmodified (ligand)
chain: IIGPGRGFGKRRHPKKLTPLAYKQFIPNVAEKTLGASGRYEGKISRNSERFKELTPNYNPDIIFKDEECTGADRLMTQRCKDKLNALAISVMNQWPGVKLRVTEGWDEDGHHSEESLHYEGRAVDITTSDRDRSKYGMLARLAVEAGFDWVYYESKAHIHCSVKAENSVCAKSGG
B23: mutant 20 (Shh C1II/A169C + N68C), NEM-modified (ligand)
chain: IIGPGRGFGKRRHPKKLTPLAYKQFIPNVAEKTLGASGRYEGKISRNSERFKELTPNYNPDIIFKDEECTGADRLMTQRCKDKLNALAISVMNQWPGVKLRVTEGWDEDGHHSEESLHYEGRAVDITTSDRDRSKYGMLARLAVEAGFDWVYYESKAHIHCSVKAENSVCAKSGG
modifications: N-ethyl maleimide on thiol of Cys68, Cys169
B24: mutant 20 (Shh C1II/A169C + N68C), HPE-modified (ligand)
chain: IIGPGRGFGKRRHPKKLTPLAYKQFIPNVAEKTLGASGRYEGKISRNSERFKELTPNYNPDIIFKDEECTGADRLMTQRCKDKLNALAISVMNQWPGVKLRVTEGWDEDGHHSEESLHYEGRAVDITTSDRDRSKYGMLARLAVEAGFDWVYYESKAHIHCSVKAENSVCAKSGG
modifications: beta-(4-hydroxyphenyl) ethylmaleimide on thiol of Cys68, Cys169
B25: mutant 20 (Shh C1II/A169C + N68C), Napth-modified (ligand)
chain: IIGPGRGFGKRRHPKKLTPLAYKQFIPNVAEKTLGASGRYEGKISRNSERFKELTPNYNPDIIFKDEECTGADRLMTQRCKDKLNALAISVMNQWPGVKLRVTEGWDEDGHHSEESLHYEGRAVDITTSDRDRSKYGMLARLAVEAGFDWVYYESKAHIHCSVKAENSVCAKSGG
modifications: N-(1-naphthyl) maleimide on thiol of Cys68, Cys169
B26: mutant 20 (Shh C1II/A169C + N68C), Pyrene-modified (ligand)
chain: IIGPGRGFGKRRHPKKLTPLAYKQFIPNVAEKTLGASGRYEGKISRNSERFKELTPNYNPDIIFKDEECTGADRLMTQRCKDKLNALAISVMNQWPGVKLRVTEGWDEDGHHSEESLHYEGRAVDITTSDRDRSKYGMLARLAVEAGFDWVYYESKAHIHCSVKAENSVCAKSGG
modifications: N-(1-pyrenyl) maleimide on thiol of Cys68, Cys169
B27: mutant 20 (Shh C1II/A169C + N68C), 5 K PEG (ligand)
chain: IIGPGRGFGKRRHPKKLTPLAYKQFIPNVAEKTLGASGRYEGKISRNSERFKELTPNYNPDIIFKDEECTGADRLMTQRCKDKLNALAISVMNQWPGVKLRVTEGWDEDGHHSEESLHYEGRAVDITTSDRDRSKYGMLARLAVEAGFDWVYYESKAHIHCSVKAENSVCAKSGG
modifications: 5 K PEG maleimide on thiol of Cys68, Cys169
B28: mutant 20 (Shh C1II/A169C + N68C), 20 K PEG (ligand)
chain: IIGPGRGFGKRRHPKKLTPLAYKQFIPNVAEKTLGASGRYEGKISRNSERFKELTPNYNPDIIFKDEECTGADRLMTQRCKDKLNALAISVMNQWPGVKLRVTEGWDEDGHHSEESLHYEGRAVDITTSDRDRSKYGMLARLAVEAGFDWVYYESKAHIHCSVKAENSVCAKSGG
modifications: 20 K PEG maleimide on thiol of Cys68, Cys169
B29: mutant 21 (Shh C1II/A169C + N92C), unmodified (ligand)
chain: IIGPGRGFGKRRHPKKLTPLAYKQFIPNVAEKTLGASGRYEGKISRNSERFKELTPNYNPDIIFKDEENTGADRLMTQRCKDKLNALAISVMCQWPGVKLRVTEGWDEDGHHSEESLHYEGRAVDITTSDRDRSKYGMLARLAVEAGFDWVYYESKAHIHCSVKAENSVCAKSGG
B30: mutant 21 (Shh C1II/A169C + N92C), NEM-modified (ligand)
chain: not shown
modifications: N-ethyl maleimide on thiol of Cys92, Cys169
B31: mutant 21 (Shh C1II/A169C + N92C), HPE-modified (ligand)
chain: not shown
modifications: beta-(4-hydroxyphenyl) ethylmaleimide on thiol of Cys92, Cys169
B32: mutant 21 (Shh C1II/A169C + N92C), Napth-modified (ligand)
chain: not shown
modifications: N-(1-naphthyl) maleimide on thiol of Cys92, Cys169
B33: mutant 21 (Shh C1II/A169C + N92C), Pyrene-modified (ligand)
chain: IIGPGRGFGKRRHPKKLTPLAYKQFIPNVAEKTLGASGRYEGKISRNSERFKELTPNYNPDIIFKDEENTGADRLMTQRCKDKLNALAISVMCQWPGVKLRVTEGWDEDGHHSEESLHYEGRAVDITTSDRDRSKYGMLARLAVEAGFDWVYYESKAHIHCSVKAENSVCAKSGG
modifications: N-(1-pyrenyl) maleimide on thiol of Cys92, Cys169
B34: mutant 21 (Shh C1II/A169C + N92C), 5 K PEG (ligand)
chain: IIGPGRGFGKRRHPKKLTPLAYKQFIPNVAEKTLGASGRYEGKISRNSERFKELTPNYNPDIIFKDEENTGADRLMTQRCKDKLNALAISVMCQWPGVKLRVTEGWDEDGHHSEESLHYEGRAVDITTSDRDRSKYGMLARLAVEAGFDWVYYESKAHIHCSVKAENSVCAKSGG
modifications: 5 K PEG maleimide on thiol of Cys92, Cys169
B35: mutant 21 (Shh C1II/A169C + N92C), 20 K PEG (ligand)
chain: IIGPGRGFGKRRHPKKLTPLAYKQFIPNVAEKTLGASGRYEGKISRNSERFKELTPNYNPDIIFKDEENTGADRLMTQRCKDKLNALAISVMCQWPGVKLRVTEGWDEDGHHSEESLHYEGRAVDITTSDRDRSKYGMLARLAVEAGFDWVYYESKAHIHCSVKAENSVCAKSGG
modifications: 20 K PEG maleimide on thiol of Cys92, Cys169
B36: mutant 22 (Shh C1II/A169C + S154C), unmodified (ligand)
chain: not shown
B37: mutant 22 (Shh C1II/A169C + S154C), NEM-modified (ligand)
chain: not shown
modifications: N-ethyl maleimide on thiol of Cys154, Cys169
B38: mutant 22 (Shh C1II/A169C + S154C), HPE-modified (ligand)
chain: not shown
modifications: beta-(4-hydroxyphenyl) ethylmaleimide on thiol of Cys154, Cys169
B39: mutant 22 (Shh C1II/A169C + S154C), Napth-modified (ligand)
chain: not shown
modifications: N-(1-naphthyl) maleimide on thiol of Cys154, Cys169
B40: mutant 22 (Shh C1II/A169C + S154C), Pyrene-modified (ligand)
chain: not shown
modifications: N-(1-pyrenyl) maleimide on thiol of Cys154, Cys169
B41: mutant 22 (Shh C1II/A169C + S154C), 5 K PEG (ligand)
chain: not shown
modifications: 5 K PEG maleimide on thiol of Cys154, Cys169
B42: mutant 22 (Shh C1II/A169C + S154C), 20 K PEG (ligand)
chain: not shown
modifications: 20 K PEG maleimide on thiol of Cys154, Cys169
B43: mutant 23 (Shh C1II/A169C + K82C), unmodified (ligand)
chain: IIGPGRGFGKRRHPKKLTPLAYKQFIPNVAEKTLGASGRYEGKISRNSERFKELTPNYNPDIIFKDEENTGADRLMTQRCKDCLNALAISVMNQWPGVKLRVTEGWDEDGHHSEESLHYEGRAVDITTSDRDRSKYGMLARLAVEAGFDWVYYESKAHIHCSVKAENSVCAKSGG
B44: mutant 24 (Shh C1II/A169C + S112C), unmodified (ligand)
chain: not shown
B45: mutant 24 (Shh C1II/A169C + S112C), NEM-modified (ligand)
chain: not shown
modifications: N-ethyl maleimide on thiol of Cys112, Cys169
B46: mutant 24 (Shh C1II/A169C + S112C), HPE-modified (ligand)
chain: not shown
modifications: beta-(4-hydroxyphenyl) ethylmaleimide on thiol of Cys112, Cys169
B47: mutant 24 (Shh C1II/A169C + S112C), Napth-modified (ligand)
chain: not shown
modifications: N-(1-naphthyl) maleimide on thiol of Cys112, Cys169
B48: mutant 24 (Shh C1II/A169C + S112C), Pyrene-modified (ligand)
chain: not shown
modifications: N-(1-pyrenyl) maleimide on thiol of Cys112, Cys169
B49: mutant 24 (Shh C1II/A169C + S112C), 5 K PEG (ligand)
chain: not shown
modifications: 5 K PEG maleimide on thiol of Cys112, Cys169
B50: mutant 24 (Shh C1II/A169C + S112C), 20 K PEG (ligand)
chain: not shown
modifications: 20 K PEG maleimide on thiol of Cys112, Cys169
B51: mutant 25 (Shh C1II/A169C + S133C), unmodified (ligand)
chain: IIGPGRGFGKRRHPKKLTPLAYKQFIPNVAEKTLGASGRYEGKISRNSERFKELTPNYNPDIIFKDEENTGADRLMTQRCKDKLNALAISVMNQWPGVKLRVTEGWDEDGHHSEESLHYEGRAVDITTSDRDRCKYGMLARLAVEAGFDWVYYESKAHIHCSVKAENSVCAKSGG
B52: mutant 25 (Shh C1II/A169C + S133C), NEM-modified (ligand)
chain: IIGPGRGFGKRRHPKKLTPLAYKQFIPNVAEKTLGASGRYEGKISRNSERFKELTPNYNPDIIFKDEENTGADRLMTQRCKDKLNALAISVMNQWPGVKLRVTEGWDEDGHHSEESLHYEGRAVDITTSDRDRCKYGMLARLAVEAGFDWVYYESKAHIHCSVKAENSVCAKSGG
modifications: N-ethyl maleimide on thiol of Cys133, Cys169
B53: mutant 25 (Shh C1II/A169C + S133C), HPE-modified (ligand)
chain: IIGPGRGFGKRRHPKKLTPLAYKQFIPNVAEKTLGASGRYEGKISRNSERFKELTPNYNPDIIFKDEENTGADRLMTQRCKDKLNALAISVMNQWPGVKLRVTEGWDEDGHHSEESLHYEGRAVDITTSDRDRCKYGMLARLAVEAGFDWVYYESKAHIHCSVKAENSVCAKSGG
modifications: beta-(4-hydroxyphenyl) ethylmaleimide on thiol of Cys133, Cys169
B54: mutant 25 (Shh C1II/A169C + S133C), Napth-modified (ligand)
chain: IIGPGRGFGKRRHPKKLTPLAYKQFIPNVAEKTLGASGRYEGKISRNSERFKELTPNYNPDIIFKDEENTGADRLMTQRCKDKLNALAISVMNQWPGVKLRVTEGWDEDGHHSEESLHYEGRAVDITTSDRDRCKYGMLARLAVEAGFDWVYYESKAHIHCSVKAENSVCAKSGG
modifications: N-(1-naphthyl) maleimide on thiol of Cys133, Cys169
B55: mutant 25 (Shh C1II/A169C + S133C), Pyrene-modified (ligand)
chain: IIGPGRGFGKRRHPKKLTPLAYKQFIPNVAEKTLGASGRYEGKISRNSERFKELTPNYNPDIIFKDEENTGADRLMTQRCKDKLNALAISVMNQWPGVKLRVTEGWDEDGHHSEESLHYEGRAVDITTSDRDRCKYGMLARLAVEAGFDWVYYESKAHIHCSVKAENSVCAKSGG
modifications: N-(1-pyrenyl) maleimide on thiol of Cys133, Cys169
B56: mutant 25 (Shh C1II/A169C + S133C), 5 K PEG (ligand)
chain: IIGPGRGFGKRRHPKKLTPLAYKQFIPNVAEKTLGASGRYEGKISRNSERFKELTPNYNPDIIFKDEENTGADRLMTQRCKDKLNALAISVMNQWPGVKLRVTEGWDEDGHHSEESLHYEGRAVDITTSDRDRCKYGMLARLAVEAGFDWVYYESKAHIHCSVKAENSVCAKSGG
modifications: 5 K PEG maleimide on thiol of Cys133, Cys169
B57: mutant 25 (Shh C1II/A169C + S133C), 20 K PEG (ligand)
chain: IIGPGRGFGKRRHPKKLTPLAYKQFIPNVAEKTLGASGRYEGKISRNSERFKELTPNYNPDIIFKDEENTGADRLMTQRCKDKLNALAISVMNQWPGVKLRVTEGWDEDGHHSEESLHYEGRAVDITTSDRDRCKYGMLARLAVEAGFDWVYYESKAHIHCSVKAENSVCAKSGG
modifications: 20 K PEG maleimide on thiol of Cys133, Cys169

molecular target: T1, Shh receptor molecules on C3H10T1/2 …; experiment: cell-based or functional assay

Binder | Potency (IC50) in C3H10T1/2 assay (alkaline phosphatase induction)
B1 | 0.4 mg/L
B2 | 0.3 mg/L
B3 | 0.5 mg/L
B4 | 1.5 mg/L
B5 | 3 mg/L
B6 | 4 mg/L
B7 | 8 mg/L
B8 | 0.4 mg/L
B9 | 0.2 mg/L
B10 | 0.4 mg/L
B11 | 0.4 mg/L
B12 | 0.5 mg/L
B13 | 0.3 mg/L
B14 | 0.3 mg/L
B15 | 0.2 mg/L
B16 | 0.2 mg/L
B17 | 0.3 mg/L
B18 | 0.2 mg/L
B19 | 0.3 mg/L

Binder | Potency (IC50) in C3H10T1/2 assay (alkaline phosphatase induction)
B20 | 0.2 mg/L
B21 | 0.3 mg/L
B22 | 0.3 mg/L
B23 | 0.2 mg/L
B24 | 0.2 mg/L
B25 | 0.3 mg/L
B26 | 0.3 mg/L
B27 | 0.2 mg/L
B28 | 0.4 mg/L
B29 | 1.5 mg/L
B30 | 2 mg/L
B31 | 2 mg/L
B32 | 4 mg/L
B33 | 3 mg/L
B34 | > 20 mg/L
B35 | > 20 mg/L
B36 | 1 mg/L
B37 | 2 mg/L
B38 | 2 mg/L

Binder | Potency (IC50) in C3H10T1/2 assay (alkaline phosphatase induction)
B39 | 2 mg/L
B40 | 3 mg/L
B41 | 5 mg/L
B42 | 8 mg/L
B43 | 0.2 mg/L
B44 | 0.4 mg/L
B45 | 0.2 mg/L
B46 | 0.2 mg/L
B47 | 0.3 mg/L
B48 | 0.25 mg/L
B49 | 0.6 mg/L
B50 | 2 mg/L
B51 | 0.4 mg/L
B52 | 0.2 mg/L
B53 | 0.2 mg/L
B54 | 0.6 mg/L
B55 | 3 mg/L
B56 | 2 mg/L
B57 | 2 mg/L
